From patent US20090300802A1 (WASHINGTON STATE UNIVERSITY RESEARCH FOUNDATION, published 2009)
No end group written: not given here. *: point of attachment. APDP = N-(4-[p-azidosalicylamido]butyl)-3'-(2'-pyridyldithio)propionamide, photoaffinity cross-linker coupled via disulfide to Cys, [N-]=[N+]=Nc1ccc(C(=O)NCCCCNC(=O)CCS*)c(O)c1; 125I = [125I]*

T1: AtPEPR2 (Arabidopsis thaliana, UniProt Q9FZ59 27-1088)
T1 construct: Coding region expressed under the CaMV 35S promoter in tobacco suspension-cultured cells; also called second AtPep1 receptor; At1g17750
T1 sequence: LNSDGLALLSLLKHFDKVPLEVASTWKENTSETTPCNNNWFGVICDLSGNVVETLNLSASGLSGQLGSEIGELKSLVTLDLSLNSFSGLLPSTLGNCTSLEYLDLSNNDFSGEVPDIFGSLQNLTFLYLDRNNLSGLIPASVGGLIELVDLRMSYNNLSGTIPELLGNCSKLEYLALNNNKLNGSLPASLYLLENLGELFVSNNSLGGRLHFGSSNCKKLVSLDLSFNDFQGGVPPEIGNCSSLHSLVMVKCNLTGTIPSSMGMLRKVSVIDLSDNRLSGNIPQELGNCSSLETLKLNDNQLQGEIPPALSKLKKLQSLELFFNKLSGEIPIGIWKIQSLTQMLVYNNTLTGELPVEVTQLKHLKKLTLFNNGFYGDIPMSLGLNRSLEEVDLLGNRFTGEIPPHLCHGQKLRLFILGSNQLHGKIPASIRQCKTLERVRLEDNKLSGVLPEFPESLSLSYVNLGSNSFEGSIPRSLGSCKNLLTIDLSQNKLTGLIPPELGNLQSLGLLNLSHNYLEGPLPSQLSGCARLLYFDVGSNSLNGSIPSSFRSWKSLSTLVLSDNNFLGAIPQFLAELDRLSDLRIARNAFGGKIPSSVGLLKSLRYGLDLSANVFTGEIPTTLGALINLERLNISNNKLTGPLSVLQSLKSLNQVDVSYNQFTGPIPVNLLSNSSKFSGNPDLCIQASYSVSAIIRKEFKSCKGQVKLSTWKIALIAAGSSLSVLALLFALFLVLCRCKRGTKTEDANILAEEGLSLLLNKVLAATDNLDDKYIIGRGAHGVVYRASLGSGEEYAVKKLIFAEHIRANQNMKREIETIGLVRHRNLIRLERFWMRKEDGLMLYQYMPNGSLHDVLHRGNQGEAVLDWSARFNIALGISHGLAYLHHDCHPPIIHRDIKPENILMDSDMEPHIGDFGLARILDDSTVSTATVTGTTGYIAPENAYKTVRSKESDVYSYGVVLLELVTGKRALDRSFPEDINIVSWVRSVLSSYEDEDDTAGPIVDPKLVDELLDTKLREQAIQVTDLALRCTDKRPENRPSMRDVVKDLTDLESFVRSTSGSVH

T2: AtPEPR1 (Arabidopsis thaliana, UniProt Q9SSL9 29-1123, glycosylated (about 180 kD, about 150 kD after PNGase F))
T2 sequence: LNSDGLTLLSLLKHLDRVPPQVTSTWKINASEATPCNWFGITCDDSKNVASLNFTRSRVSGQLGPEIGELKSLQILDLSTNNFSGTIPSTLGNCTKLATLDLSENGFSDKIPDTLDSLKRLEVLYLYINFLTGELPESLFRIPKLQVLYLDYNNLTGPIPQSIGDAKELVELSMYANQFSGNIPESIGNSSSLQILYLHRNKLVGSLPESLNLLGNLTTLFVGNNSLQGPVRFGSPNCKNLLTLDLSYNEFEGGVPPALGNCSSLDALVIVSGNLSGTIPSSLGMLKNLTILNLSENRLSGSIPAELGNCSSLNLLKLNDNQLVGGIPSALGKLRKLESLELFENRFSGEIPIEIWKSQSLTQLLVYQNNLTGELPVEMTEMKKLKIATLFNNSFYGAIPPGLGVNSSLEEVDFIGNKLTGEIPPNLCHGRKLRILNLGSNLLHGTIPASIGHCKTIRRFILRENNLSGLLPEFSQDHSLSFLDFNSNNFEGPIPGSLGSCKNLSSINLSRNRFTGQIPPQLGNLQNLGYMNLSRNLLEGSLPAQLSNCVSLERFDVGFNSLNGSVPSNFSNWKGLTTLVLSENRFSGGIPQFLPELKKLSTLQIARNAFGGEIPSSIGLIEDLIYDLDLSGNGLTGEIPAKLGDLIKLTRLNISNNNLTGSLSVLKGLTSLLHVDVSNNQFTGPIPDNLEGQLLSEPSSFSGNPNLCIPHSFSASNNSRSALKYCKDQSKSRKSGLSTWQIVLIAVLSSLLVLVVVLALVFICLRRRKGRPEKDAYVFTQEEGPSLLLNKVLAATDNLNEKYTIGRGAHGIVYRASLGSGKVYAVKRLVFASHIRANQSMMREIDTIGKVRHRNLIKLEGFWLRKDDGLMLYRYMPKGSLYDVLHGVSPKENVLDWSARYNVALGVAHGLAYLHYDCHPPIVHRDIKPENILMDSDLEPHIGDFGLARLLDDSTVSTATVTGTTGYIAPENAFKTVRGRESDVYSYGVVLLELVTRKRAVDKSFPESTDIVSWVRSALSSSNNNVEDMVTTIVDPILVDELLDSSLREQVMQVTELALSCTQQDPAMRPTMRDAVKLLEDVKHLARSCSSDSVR

B1: AtPep1 (peptide)
peptide: ATKVKAKQRGKEKVSSGRPGQHN
notes: 23 amino acid peptide, chemically synthesized, not post-translationally modified; also called Arabidopsis Peptide 1; native AtPep1

Key:
[1] = molecular target: OsPEPR1 (rice); test: cell-based or functional assay
[2] = molecular target: T1, AtPEPR2; test: sub-heading of Example 9, supported by alkalinization and photoaffinity labeling of transgenic tobacco cells
Experimental: To clarify whether AtPEPR2 binds to AtPep1, the AtPEPR2 coding region was fused to the CaMV 35S promoter and introduced into tobacco suspension-cultured cells by Agrobacterium. Tobacco cells expressing AtPEPR1 and GUS genes were also created as positive and negative controls, respectively. […] These transgenic lines were analyzed for alkalinizing activity as previously described (Pearce et al., Proc. Natl. Acad. Sci. USA 98, 12843-12847, 2001). […] The level of response to AtPep1 for the AtPEPR2-expressing cells was similar to that of AtPEPR1-expressing cells and to Arabidopsis cells (Yamaguchi et al., Proc. Natl. Acad. Sci. USA 103: 10104-10109, 2006, Huffaker et al., Proc. Natl. Acad. Sci. USA 103: 10098-10103, 2006), with a maximal change of 1-1.2 pH units and a half-maximal peptide activity of 0.25 nM.
(§1) For final confirmation, a photoaffinity-labeling experiment was performed using the transgenic tobacco cells. […] After separation of extracted proteins by SDS-PAGE, the labeled proteins were detected on X-ray film. […] Since no specific labeling was detected in wild type tobacco and GUS expressing cells, the proteins labeled specifically by ¹²⁵I₁-azido-Cys-AtPep1 in AtPEPR1 and AtPEPR2 expressing cells were products from the AtPEPR1 and AtPEPR2 genes.

[3] = molecular target: T2, AtPEPR1; test: cell-based or functional assay
[4] = molecular target: T2, AtPEPR1; test: saturation binding of radiolabeled peptide to Arabidopsis suspension cultured cells, Scatchard analysis
Excerpt: An analog of AtPep1 was synthesized with a Tyr residue attached to its N-terminus and radiolabeled with ¹²⁵I to quantify binding. The Tyr analog and mono- and di-iodo-Tyr-AtPep1 analogs were separated by HPLC, and the concentration-dependent activities of AtPep1 and these analogs where tested in the alkalinization assay. […] The mono-iodinated Tyr-AtPep1 comprised about 95% of the iodinated proteins and was employed for binding studies.

[5] = molecular target: T2, AtPEPR1; test: photoaffinity labeling (0.25 nM) of transgenic tobacco cells expressing AtPEPR1, SDS-PAGE and X-ray film
Experimental: (§2) This wash was repeated twice. The cells were resuspended in 1 mL MS medium and irradiated with UV-B for 10 min on ice to photoactivate the azido group to effect the crosslinking. The cells were washed with 1 mL MS medium, centrifuged as above, and resuspended in 400 μL of 5% SDS. The cells were disrupted by boiling for 30 min, and the insoluble debris was removed by centrifugation at 10,000×g. […] After centrifugation at 10,000×g, the pellet was recovered and dissolved in 100 μL of Laemmli sample buffer containing 5% SDS, boiled for 10 min, and separated using 8% SDS-PAGE. The gels were dried and exposed to X-ray film for 50 hr to visualize labeled proteins. In competition assays, unlabeled AtPep1 and suramin were added to the cells and incubated for 10 min before adding ¹²⁵I-azido-Cys-AtPep1. The same procedures described above were employed to detect labeled proteins.
as §1

[6] = molecular target: T1, AtPEPR2; test: photoaffinity labeling (0.25 nM) of transgenic tobacco cells expressing AtPEPR2, SDS-PAGE and X-ray film
Experimental: as §2, §1

Row | Molecule | half-maximal activity, alkalinization of tobacco cells expressing AtPEPR1 [3] [nM] | maximal change of medium pH, tobacco cells expressing AtPEPR1 [3] [pH units] | change in medium pH of transgenic tobacco cells expressing AtPEPR1 at 2.5 nM peptide [3] [pH units] | further results
1 | OsPep3a (peptide) |  |  |  | half-maximal activity, alkalinization of tobacco cells expressing OsPEPR1 [1]: 0.25 nM; medium pH increase, tobacco cells expressing OsPEPR1 [1]: 1.2 pH unit
2 | ZmPep4a (peptide) |  |  |  | half-maximal activity, alkalinization of tobacco cells expressing OsPEPR1 [1]: 0.25 nM; medium pH increase, tobacco cells expressing OsPEPR1 [1]: 1.2 pH unit
3 | B1 | 0.25 | 1.2 |  | binding result [2]: binds
4 | SLNVMRKGIRKQPVSSGKRGGVN [AtPep2] | 0.25 | 1.2 | ≤ 0.6 | 
5 | GLPGKKNVLKKSRESSGKPGGTN [AtPep5] | 0.25 | 1.2 | ≤ 0.6 | 
6 | ITAVLRRRPRPPPYSSGRPGQNN [AtPep6] | 0.25 | 1.2 | ≤ 0.6 | 
7 | EIKARGKNKTKPTPSSGKGGKHN [AtPep4] | 2.5 |  |  | 
8 | VSGNVAARKGKQQTSSGKGGGTN [AtPep7] | 2.5 |  |  | 
9 | Y(125I)ATKVKAKQRGKEKVSSGRPGQHN (also called mono-iodinated Tyr-AtPep1) [125I1-Tyr-AtPep1] |  |  |  | Kd [4]: 0.25 nM
10 | C(APDP)ATKVKAKQRGKEKVSSGRPGQHN (also: mono-iodinated with 125I, site not given here, also called 125I1-azido-Cys-AtPep1) [125I-azido-Cys-AtPep1] |  |  |  | binding result [5]: binds; binding result [6]: binds
